# Results: PMC7382501
# B1: Pfas25nt (FwPfas25nt/RvPfas25nt) (dsDNA)
# DNA 1: TACCCGTACGTAGAACTCGCCAGTA
# DNA 2: TACTGGCGAGTTCTACGTACGGGTA
# Biological target: FasR full-length (crystallisation) (Mycobacterium tuberculosis H37Rv, UniProt O05858 1-228)
# Experiment: X-ray crystallography
# Settings: protein: recombinant; tags: N-terminal His6-TEV, likely cleaved with TEV; chain copies: 2; blunt
binder,measurement,value
B1,binding result,binds
